This note sets out measurements from the supplement of paper PMC11908140.

B1: library; numbered along this chain (parent)
chain: MRKPRAAVGSGHRKQAASQEGRQKHAKNNSQAKPSACDGLARQPEEVVLQASVSSYHLFRDVAEVTAFRGSLLSWYDQEKRDLPWRRRAEDEMDLDRRAYAVWVSEVMLQQTQVATVINYYTGWMQKWPTLQDLASASLEEVNQLWAGLGYYSRGRRLQEGARKVVEELGGHMPRTAETLQQLLPGVGRYTAGAIASIAFGQATGVVDGNVARVLCRVRAIGADPSSTLVSQQLWGLAQQLVDPARPGDFNQAAMELGATVCTPQRPLCSQCPVESLCRARQRVEQEQLLASGSLSGSPDVEECAPNTGQCHLCLPPSEPWDQTLGVVNFPRKASRKPPREESSATCVLEQPGALGAQILLVQRPNSGLLAGLWEFPSVTWEPSEQLQRKALLQELQRWAGPLPATHLRHLGEVVHTFSHIKLTYQVYGLALEGQTPVTTVPPGARWLTQEEFHTAAVSTAMKKVFRVYQGQQPGTCMGSKRSQVSSPCSRKKPRMGQQVLDNFFRSHISTDAHSLNSAAQ
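Also: cells sorted at 72 h after reporter transfection.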

The series covers variants of B1. The series can be described thus: 8OG:A repair function score (normalized; synonymous = 0, nonsense = -1) (normalized log-likelihood score); higher = more repair activity (WT-like). Particulars: with 8OG:A DNA repair reporter (GFP) in HEK-293 MUTYH KO cells. In outline: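 GFP+ (repair) and GFP− bins of viable mCherry+ cells were collected at 72 h from MUTYH knockout HEK-293 cells bearing lentiviral MUTYH cDNA NNN codon-scan libraries in 10 pg/ml doxycycline, co-transfected with an 8OG:A GFP repair reporter and mCherry. Tile amplicons were sequenced, and per-tile Rosace fitness scores were normalized to a repair function score anchored on synonymous and nonsense distributions. Synonymous medians were set to 0 and nonsense to -1, with variants under 300 counts per million at the start removed.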
On to MRKPRAAVGSGHRKQAASQEGRQKHAKNNSQAKPSACDGLARQPEEVVLQASVSSYHLFRDVAEVTAFRGSLLSWYDQEKRDLPWRRRAEDEMDLDRRAYAVWVSEVMLQQTQVATVINYYTGWMQKWPTLQDLASASLEEVNQLWAGLGYYSRGRRLQEGARKVVEELGGHMPRTAETLQQLLPGVGRYTAGAIASIAFGQATGVGDGNVARVLCRVRAIGADPSSTLVSQQLWGLAQQLVDPARPGDFNQAAMELGATVCTPQRPLCSQCPVESLCRARQRVEQEQLLASGSLSGSPDVEECAPNTGQCHLCLPPSEPWDQTLGVVNFPRKASRKPPREESSATCVLEQPGALGAQILLVQRPNSGLLAGLWEFPSVTWEPSEQLQRKALLQELQRWAGPLPATHLRHLGEVVHTFSHIKLTYQVYGLALEGQTPVTTVPPGARWLTQEEFHTAAVSTAMKKVFRVYQGQQPGTCMGSKRSQVSSPCSRKKPRMGQQVLDNFFRSHISTDAHSLNSAAQ [V207G], for which the “8OG:A repair function score” value was -1.03.
As for MRKPRAAVGSGHRKQAASQEGRQKHAKNNSQAKPSACDGLARQPEEVVLQASVSSYHLFRDVAEVTAFRGSLLSWYDQEKRDLPWRRRAEDEMDLDRRAYAVWVSEVMLQQTQVATVINYYTGWMQKWPTLQDLASASLEEVNQLWAGLGYYSRGRRLQEGARKVVEELGGHMPRTAETLQQLLPGVGRYTAGAIASIAFGQATGVIDGNVARVLCRVRAIGADPSSTLVSQQLWGLAQQLVDPARPGDFNQAAMELGATVCTPQRPLCSQCPVESLCRARQRVEQEQLLASGSLSGSPDVEECAPNTGQCHLCLPPSEPWDQTLGVVNFPRKASRKPPREESSATCVLEQPGALGAQILLVQRPNSGLLAGLWEFPSVTWEPSEQLQRKALLQELQRWAGPLPATHLRHLGEVVHTFSHIKLTYQVYGLALEGQTPVTTVPPGARWLTQEEFHTAAVSTAMKKVFRVYQGQQPGTCMGSKRSQVSSPCSRKKPRMGQQVLDNFFRSHISTDAHSLNSAAQ [V207I], the “8OG:A repair function score” value was -0.363.
Turning to MRKPRAAVGSGHRKQAASQEGRQKHAKNNSQAKPSACDGLARQPEEVVLQASVSSYHLFRDVAEVTAFRGSLLSWYDQEKRDLPWRRRAEDEMDLDRRAYAVWVSEVMLQQTQVATVINYYTGWMQKWPTLQDLASASLEEVNQLWAGLGYYSRGRRLQEGARKVVEELGGHMPRTAETLQQLLPGVGRYTAGAIASIAFGQATGVDDGNVARVLCRVRAIGADPSSTLVSQQLWGLAQQLVDPARPGDFNQAAMELGATVCTPQRPLCSQCPVESLCRARQRVEQEQLLASGSLSGSPDVEECAPNTGQCHLCLPPSEPWDQTLGVVNFPRKASRKPPREESSATCVLEQPGALGAQILLVQRPNSGLLAGLWEFPSVTWEPSEQLQRKALLQELQRWAGPLPATHLRHLGEVVHTFSHIKLTYQVYGLALEGQTPVTTVPPGARWLTQEEFHTAAVSTAMKKVFRVYQGQQPGTCMGSKRSQVSSPCSRKKPRMGQQVLDNFFRSHISTDAHSLNSAAQ [V207D], the “8OG:A repair function score” value is -0.986.
Regarding MRKPRAAVGSGHRKQAASQEGRQKHAKNNSQAKPSACDGLARQPEEVVLQASVSSYHLFRDVAEVTAFRGSLLSWYDQEKRDLPWRRRAEDEMDLDRRAYAVWVSEVMLQQTQVATVINYYTGWMQKWPTLQDLASASLEEVNQLWAGLGYYSRGRRLQEGARKVVEELGGHMPRTAETLQQLLPGVGRYTAGAIASIAFGQATGVFDGNVARVLCRVRAIGADPSSTLVSQQLWGLAQQLVDPARPGDFNQAAMELGATVCTPQRPLCSQCPVESLCRARQRVEQEQLLASGSLSGSPDVEECAPNTGQCHLCLPPSEPWDQTLGVVNFPRKASRKPPREESSATCVLEQPGALGAQILLVQRPNSGLLAGLWEFPSVTWEPSEQLQRKALLQELQRWAGPLPATHLRHLGEVVHTFSHIKLTYQVYGLALEGQTPVTTVPPGARWLTQEEFHTAAVSTAMKKVFRVYQGQQPGTCMGSKRSQVSSPCSRKKPRMGQQVLDNFFRSHISTDAHSLNSAAQ [V207F], the “8OG:A repair function score” value was -0.875.
For MRKPRAAVGSGHRKQAASQEGRQKHAKNNSQAKPSACDGLARQPEEVVLQASVSSYHLFRDVAEVTAFRGSLLSWYDQEKRDLPWRRRAEDEMDLDRRAYAVWVSEVMLQQTQVATVINYYTGWMQKWPTLQDLASASLEEVNQLWAGLGYYSRGRRLQEGARKVVEELGGHMPRTAETLQQLLPGVGRYTAGAIASIAFGQATGVHDGNVARVLCRVRAIGADPSSTLVSQQLWGLAQQLVDPARPGDFNQAAMELGATVCTPQRPLCSQCPVESLCRARQRVEQEQLLASGSLSGSPDVEECAPNTGQCHLCLPPSEPWDQTLGVVNFPRKASRKPPREESSATCVLEQPGALGAQILLVQRPNSGLLAGLWEFPSVTWEPSEQLQRKALLQELQRWAGPLPATHLRHLGEVVHTFSHIKLTYQVYGLALEGQTPVTTVPPGARWLTQEEFHTAAVSTAMKKVFRVYQGQQPGTCMGSKRSQVSSPCSRKKPRMGQQVLDNFFRSHISTDAHSLNSAAQ [V207H], the “8OG:A repair function score” value was -0.941.
Turning to MRKPRAAVGSGHRKQAASQEGRQKHAKNNSQAKPSACDGLARQPEEVVLQASVSSYHLFRDVAEVTAFRGSLLSWYDQEKRDLPWRRRAEDEMDLDRRAYAVWVSEVMLQQTQVATVINYYTGWMQKWPTLQDLASASLEEVNQLWAGLGYYSRGRRLQEGARKVVEELGGHMPRTAETLQQLLPGVGRYTAGAIASIAFGQATGVEDGNVARVLCRVRAIGADPSSTLVSQQLWGLAQQLVDPARPGDFNQAAMELGATVCTPQRPLCSQCPVESLCRARQRVEQEQLLASGSLSGSPDVEECAPNTGQCHLCLPPSEPWDQTLGVVNFPRKASRKPPREESSATCVLEQPGALGAQILLVQRPNSGLLAGLWEFPSVTWEPSEQLQRKALLQELQRWAGPLPATHLRHLGEVVHTFSHIKLTYQVYGLALEGQTPVTTVPPGARWLTQEEFHTAAVSTAMKKVFRVYQGQQPGTCMGSKRSQVSSPCSRKKPRMGQQVLDNFFRSHISTDAHSLNSAAQ [V207E], the “8OG:A repair function score” value was -1.03.
